Measurements as given in PMC5362899, “Structural insights into the nucleotide base specificity of P2X receptors” (Scientific Reports, 2017).

Target: zebrafish P2X4 construct ΔP2X4-C (ΔN27/ΔC24/N78K/N187R) (zebrafish) (UniProt F8W463)
Assay: crystal structure; ΔP2X4-C (2 mg/ml) with 3 mM CTP; crystals grown at 4 °C by cross-seeding in 20-26% PEG 2000, 300 mM Mg(NO3)2, 100 mM Tris pH 8.0; 2.8 Å

Substance: zebrafish P2X4 construct ΔP2X4-C (ΔN27/ΔC24/N78K/N187R) (from UniProt F8W463 28-365) (receptor)
- stoichiometry N: 3
